T1: (GDK)4 acceptor peptide
T1 chain: GDKGDKGDKGDK

T2: His10-tagged human collagen III construct, P02461
T2 chain: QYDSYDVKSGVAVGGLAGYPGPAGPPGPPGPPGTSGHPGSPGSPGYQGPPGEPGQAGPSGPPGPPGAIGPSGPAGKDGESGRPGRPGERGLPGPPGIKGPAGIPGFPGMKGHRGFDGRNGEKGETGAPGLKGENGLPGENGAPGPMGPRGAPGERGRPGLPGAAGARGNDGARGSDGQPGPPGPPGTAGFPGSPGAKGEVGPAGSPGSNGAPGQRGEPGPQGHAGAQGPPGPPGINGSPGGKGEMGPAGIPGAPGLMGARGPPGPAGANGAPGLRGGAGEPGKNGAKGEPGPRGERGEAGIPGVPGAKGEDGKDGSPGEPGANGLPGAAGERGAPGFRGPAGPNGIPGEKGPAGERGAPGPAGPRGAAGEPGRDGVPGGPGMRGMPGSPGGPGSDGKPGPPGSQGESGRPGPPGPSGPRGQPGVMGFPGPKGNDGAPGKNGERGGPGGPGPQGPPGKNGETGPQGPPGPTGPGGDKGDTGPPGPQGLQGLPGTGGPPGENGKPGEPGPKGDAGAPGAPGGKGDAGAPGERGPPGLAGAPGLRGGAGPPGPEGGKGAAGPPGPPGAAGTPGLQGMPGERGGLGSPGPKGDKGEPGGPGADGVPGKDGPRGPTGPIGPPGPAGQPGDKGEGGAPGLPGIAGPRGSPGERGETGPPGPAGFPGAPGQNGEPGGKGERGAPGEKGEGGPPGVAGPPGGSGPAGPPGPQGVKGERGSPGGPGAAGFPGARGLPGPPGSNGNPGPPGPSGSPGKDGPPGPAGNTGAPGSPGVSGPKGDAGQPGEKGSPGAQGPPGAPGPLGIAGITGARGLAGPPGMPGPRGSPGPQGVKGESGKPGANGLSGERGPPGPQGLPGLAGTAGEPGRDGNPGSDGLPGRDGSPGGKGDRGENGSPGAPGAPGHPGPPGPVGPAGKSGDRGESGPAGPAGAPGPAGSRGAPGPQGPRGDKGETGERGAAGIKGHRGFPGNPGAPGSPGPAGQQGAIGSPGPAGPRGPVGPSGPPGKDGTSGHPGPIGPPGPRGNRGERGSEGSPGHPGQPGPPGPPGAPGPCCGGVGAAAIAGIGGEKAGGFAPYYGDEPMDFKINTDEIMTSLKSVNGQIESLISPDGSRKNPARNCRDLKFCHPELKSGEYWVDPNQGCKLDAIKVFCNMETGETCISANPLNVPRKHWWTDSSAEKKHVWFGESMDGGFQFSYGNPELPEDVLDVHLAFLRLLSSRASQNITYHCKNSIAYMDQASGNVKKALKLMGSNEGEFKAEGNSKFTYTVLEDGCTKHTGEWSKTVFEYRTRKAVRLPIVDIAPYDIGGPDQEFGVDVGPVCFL

T3: MimiD peptide GTKGETGLKGII
T3 chain: GTKGETGLKGII

B1: Mimivirus prolyl hydroxylase L593_long (protein)
chain: MKTVTIITIIVVIIVVILIIMVLSKSCVSHFRNVGSLNSRDVNLKDDFSYANIDDPYNKPFVLNNLINPTKCQEIMQFANGKLFDSQVLSGTDKNIRNSQQMWISKNNPMVKPIFENICRQFNVPFDNAEDLQVVRYLPNQYYNEHHDSCCDSSKQCSEFIERGGQRILTVLIYLNNEFSDGHTYFPNLNQKFKPKTGDALVFYPLANNSNKCHPYSLHAGMPVTSGEKWIANLWFRERKFS
B2: Mimivirus lysyl hydroxylase L230 (protein)
chain: MISRTYVINLARRPDKKDRILAEFLKLKEKGVELNCVIFEAVDGNNPEHLSRFNFKIPNWTDLNSGKPMTNGEVGCALSHWSVWKDVVDCVENGTLDKDCRILVLEDDVVFLDNFMERYQTYTSEITYNCDLLYLHRKPLNPYTETKISTHIVKPNKSYWACAYVITYQCAKKFMNANYLENLIPSDEFIPIMHGCNVYGFEKLFSNCEKIDCYAVQPSLVKLTSNAFNDSETFHSGSYVPSNKFNFDTDKQFRIVYIGPTKGNSFHRFTEYCKLYLLPYKVIDEKETNDFVSLRSELQSLSEQDLNTTLMLVVSVNHNDFCNTIPCAPTNEFIDKYKQLTTDTNSIVSAVQNGTNKTMFIGWANKISEFINHYHQKLTESNAETDINLANLLLISSISSDFNCVVEDVEGNLFQLINEESDIVFSTTTSRVNNKLGKTPSVLYANSDSSVIVLNKVENYTGYGWNEYYGYHVYPVKFDVLPKIYLSIRIVKNANVTKIAETLDYPKELITVSISRSEHDSFYQADIQKFLLSGADYYFYISGDCIITRPTILKELLELNKDFVGPLMRKGTESWTNYWGDIDPSNGYYKRSFDYFDIIGRDRVGCWNVPYLASVYLIKKSVIEQVPNLFTENSHMWNGSNIDMRLCHNLRKNNVFMYLSNLRPYGHIDDSINLEVLSGVPTEVTLYDLPTRKEEWEKKYLHPEFLSHLQNFKDFDYTEICNDVYSFPLFTPAFCKEVIEVMDKANLWSKGGDSYFDPRIGGVESYPTQDTQLYEVGLDKQWHYVVFNYVAPFVRHLYNNYKTKDINLAFVVKYDMERQSELAPHHDSSTYTLNIALNEYGKEYTAGGCEFIRHKFIWQGQKVGYATIHAGKLLAYHRALPITSGKRYILVSFVN
B3: Mimivirus prolyl hydroxylase L593_short (protein)
chain: MVLSKSCVSHFRNVGSLNSRDVNLKDDFSYANIDDPYNKPFVLNNLINPTKCQEIMQFANGKLFDSQVLSGTDKNIRNSQQMWISKNNPMVKPIFENICRQFNVPFDNAEDLQVVRYLPNQYYNEHHDSCCDSSKQCSEFIERGGQRILTVLIYLNNEFSDGHTYFPNLNQKFKPKTGDALVFYPLANNSNKCHPYSLHAGMPVTSGEKWIANLWFRERKFS

Columns and labels:
[1] = target: (GPP)7 acceptor peptide
[2] = target: T1, (GDK)4 acceptor peptide
[3] = target: T2, His10-tagged human collagen III …
[4] = target: T3, MimiD peptide GTKGETGLKGII

Protein	prolyl hydroxylase activity ([14C]-CO2 production from [14C]-2-oxoglutarate) [1]	lysyl hydroxylase activity [2]	hydroxylysine in collagen III after co-expression in E. coli (amino acid analysis by HPLC) [3]	lysyl hydroxylase activity [4]	hydroxyproline in collagen III after co-expression in E. coli (amino acid analysis by HPLC, tandem mass spectrometry of tryptic peptides) [3]
B1	Both short and long forms of L593 are active as prolyl hydroxylases, but the short form has a higher specific activity than the long form	–	–	–	–
B2	–	The lysyl hydroxylase activity was highest towards the (GDK)4 peptide and the GTKGETGLKGII peptide derived from a Mimivirus collagen sequence	A peak corresponding to hydroxylysine was detected in collagen III co-expressed with L230 but not in collagen expressed alone in E. coli	The lysyl hydroxylase activity was highest towards the (GDK)4 peptide and the GTKGETGLKGII peptide derived from a Mimivirus collagen sequence	–
B3	the short form of L593 yielded prolyl hydroxylase activity in the range of 600 pmol/min/mg protein	–	–	–	the amino acid hydroxyproline was clearly detected in the human collagen III extract when the Mimivirus L593 protein was co-expressed
